Earlier results, collected in paper PMC8228819, “Comparison of a Short Linear Antimicrobial Peptide with Its Disulfide-Cyclized and Cyclotide-Grafted Variants against Clinically Relevant Pathogens” (Microorganisms, 2021).
Entries after “also recorded” stand apart in the source; their conditions may differ.

Assays:
[1] = cited from earlier work
Source text: We therefore followed two cyclization strategies: (i) a simple disulfide-cyclization by introduction of N- and C-terminal cysteines, and (ii) grafting onto an extremely stable scaffold with three disulfide bridges and backbone cyclization. The MCoTI-II cyclotide scaffold was used because of its inherent non-cytotoxic nature. […] The linear peptide was ...

red blood cells = conditions: cited from earlier work
Source text: The 9mer AMP was grafted into loops 5 and 6 of MCoTI-II. These loops were previously found to be abl ...

[2] = cited from earlier work; remark: listed apart in the source
Source text: These loops were previously found to be abl ... || Fractions f4 to f6 of [L6-optP7]Mco were initially tested against P. aeruginosa, E. coli, and MRSA (Table 1) using a rich media, Mueller–Hinton broth (MH), with all fractions displaying about the same moderate activity (within errors of the method). […] Calcium (Ca^2+) and magnesium (Mg^2+) often have the strongest effect on the antimicrobial activity of AMPs; their theoretical concentration in MH brot ...

Substance: Momordica trypsin inhibitor II (cyclo(SGSDGGVCPKILKKCRRDSDCPGACICRGNGYCG); also: three cystine-knot disulfides, pairing not given here; UniProt P82409 1-34, looked up) [MCoTI-II]
- Stability in human serum [1]: high stability
- Hemolytic activity towards red blood cells (red blood cells): does not show hemolytic activity
- Antimicrobial activity [2]: does not exhibit any antimicrobial activity; also recorded: does not exhibit any antimicrobial effects
